Data: paper PMC10394066, “Polymorphic amyloid nanostructures of hormone peptides involved in glucose homeostasis display reversible amyloid formation” (Nature Communications, 2023)
Non-standard residues stand in square brackets, D forms with d. No end group written: not given here. pGlu = O=C1CC[C@@H](C(=O)O)N1

Columns and labels:
[1] = molecular target: the molecule itself; assay: FTIR; 6 mM peptide in water, pH adjusted from 7.2 to 4.2; amide I band 1625–1630 cm^−1; bio-ATR cell
[2] = molecular target: the molecule itself; assay: far-UV CD; 0.15–0.20 mM peptide in distilled water, physiological pH and above (above pH 5), stirred 500–600 rpm at 37 °C, measured at 25 °C for up to weeks
[3] = molecular target: the molecule itself; assay: crystal structure; amyloid-like single crystals grown from peptide solutions (water, water/ACN/TFA, water/EtOH or 0.1 M citrate pH 4.0; pH 2-7; 4-37 °C; conditions of each polymorph in Table 1); data at 100 K, Cu Kα
[4] = molecular target: the molecule itself; assay: far-UV CD; 0.15–0.20 mM peptide in distilled water, acidic pH set with HCl/NaOH, stirred 500–600 rpm at 37 °C, measured at 0–168 h at 25 °C; U to β/β’-type spectral shift

B1: APR^GLP1 hexapeptide EFIAWL (aggregation-prone region of glucagon-like peptide 1) (peptide)
peptide: EFIAWL
notes: aggregation-prone hexapeptide segment of human glucagon-like peptide 1 (GLP-1); source: synthetic peptide (flow solid-phase synthesis, Fmoc/tBu; RP-HPLC purified)
binding result [1]: binds

B2: APR^Tc5b hexapeptide LYIQWL (synthetic exendin-like APR of the de novo designed Tc5b and E19) (peptide)
peptide: LYIQWL
notes: hexapeptide segment of the de novo designed Trp-cage exendin derivatives Tc5b and E19; non-natural, no acidic side chain; also called LYIQWL (Tc5b, E19); source: synthetic peptide (flow solid-phase synthesis, Fmoc/tBu; RP-HPLC purified)
binding result [2]: binds

B3: APR^GLP2 hexapeptide DFINWL (aggregation-prone region of glucagon-like peptide 2) (peptide)
peptide: DFINWL
notes: aggregation-prone hexapeptide segment of human glucagon-like peptide 2 (GLP-2); free termini (no terminal protection); also called DFINWL (GLP-2); source: synthetic peptide (flow solid-phase synthesis, Fmoc/tBu; RP-HPLC purified)
binding result [3]: binds

B4: pEFIAWL (APR^GLP1 with N-terminal pyroglutamic acid) (peptide)
peptide: [pGlu]FIAWL
notes: aggregation-prone hexapeptide segment of human GLP-1; residue 1 is pyroglutamic acid; Both EFIAWL and pEFIAWL were present in the crystallization samples; the crystal holds pEFIAWL; also called pEFIAWL (GLP-1); APR^GLP1 (in the crystal); source: formed from synthetic EFIAWL by spontaneous ring closure in the crystallization sample (pH ≈ 2, 37 °C)
binding result [3]: binds

B5: Ac-EFIAWL (N-terminally acetylated APR^GLP1) (peptide)
peptide: Ac-EFIAWL
notes: aggregation-prone hexapeptide segment of human GLP-1, N-terminally acetylated; also called Ac-EFIAWL (GLP-1); source: synthetic peptide
binding result [4]: binds
